The record followed here is PMC4421793, “A secretory kinase complex regulates extracellular protein phosphorylation” (eLife, 2015).

Sequences and labels used below:
B1: Fam20C (93–584), recombinant (enzyme, human, UniProt Q8IXL6 93-584, looked up)
chain: DFSSDPSSNLSSHSLEKLPPAAEPAERALRGRDPGALRPHDPAHRPLLRDPGPRRSESPPGPGGDASLLARLFEHPLYRVAVPPLTEEDVLFNVNSDTRLSPKAAENPDWPHAGAEGAEFLSPGEAAVDSYPNWLKFHIGINRYELYSRHNPAIEALLHDLSSQRITSVAMKSGGTQLKLIMTFQNYGQALFKPMKQTREQETPPDFFYFSDYERHNAEIAAFHLDRILDFRRVPPVAGRMVNMTKEIRDVTRDKKLWRTFFISPANNICFYGECSYYCSTEHALCGKPDQIEGSLAAFLPDLSLAKRKTWRNPWRRSYHKRKKAEWEVDPDYCEEVKQTPPYDSSHRILDVMDMTIFDFLMGNMDRHHYETFEKFGNETFIIHLDNGRGFGKYSHDELSILVPLQQCCRIRKSTYLRLQLLAKEEYKLSLLMAESLRGDQVAPVLYQPHLEALDRRLRVVLKAVRDCVERNGLHSVVDDDLDTEHRAASAR
notes: human Fam20C, residues 93-584; also called recombinant Fam20C; source: Hi5 insect cells, purified from the conditioned medium (MBP tag removed by TEV protease digestion and gel filtration)
B2: Fam20A (63–529), recombinant (domain or fragment, human, UniProt Q96MK3 63-529, looked up)
chain: DPGTIVHNFSRTEPRTEPAGGSHSGSSSKLQALFAHPLYNVPEEPPLLGAEDSLLASQEALRYYRRKVARWNRRHKMYREQMNLTSLDPPLQLRLEASWVQFHLGINRHGLYSRSSPVVSKLLQDMRHFPTISADYSQDEKALLGACDCTQIVKPSGVHLKLVLRFSDFGKAMFKPMRQQRDEETPVDFFYFIDFQRHNAEIAAFHLDRILDFRRVPPTVGRIVNVTKEILEVTKNEILQSVFFVSPASNVCFFAKCPYMCKTEYAVCGNPHLLEGSLSAFLPSLNLAPRLSVPNPWIRSYTLAGKEEWEVNPLYCDTVKQIYPYNNSQRLLNVIDMAIFDFLIGNMDRHHYEMFTKFGDDGFLIHLDNARGFGRHSHDEISILSPLSQCCMIKKKTLLHLQLLAQADYRLSDVMRESLLEDQLSPVLTEPHLLALDRRLQTILRTVEGCIVAHGQQSVIVDGPVEQ
notes: human Fam20A, residues 63-529; Cloned into a modified pI-secSUMOstar vector in which the SUMO tag was replaced by an MBP tag and a TEV site; also called recombinant Fam20A; source: Hi5 insect cells, purified from the conditioned medium (MBP tag removed by TEV protease digestion and gel filtration)

Series [1] deals with the molecule itself. The series is described as follows: SEC; one purified protein alone on Superdex 200 in 25 mM Tris-HCl pH 7.4, 150 mM NaCl; oligomeric state judged from the elution profile.
Series [2] addresses B1. The series is described as follows: cell-based or functional assay.
Series [3] has as its target B1. Description: SEC; two purified proteins (1 mg/ml each) incubated on ice for 2 hr, then Superdex 200 in 25 mM Tris-HCl pH 7.4, 150 mM NaCl; fractions on SDS-PAGE, Coomassie. The following applies: both partners purified.

For the molecule B1, the stoichiometry N (usually the number of molecules, sites or subunits per partner or assembly) in series [1] is 2.

For B2, in series [2], the “Km of Fam20C (2 μg/ml) for ENAM (173–277) S191A with excess Fam20A (40 μg/ml); 14.6 μM without Fam20A, a ∼2.5-fold decrease” value came out at 5.6 µM and the “kcat of Fam20C (2 μg/ml) for ENAM (173–277) S191A with excess Fam20A (40 μg/ml); 0.04 s^−1 without Fam20A, a 19-fold increase” value was 0.76 s⁻¹. Besides, in series [3], the “stoichiometry N” value is 1.
